Test results as given in PMC3124497.

Columns and labels:
[1] = biological target: HIV-1 JR-CSF Env trimer (gp120/gp41) on LAI-chimeric molecular clone virions (HIV-1 isolate JR-CSF | HIV-1 isolate LAI) (UniProt P20871)
[2] = biological target: HIV-1 JR-FL Env trimer (gp120/gp41) on LAI-chimeric molecular clone virions (HIV-1 isolate JR-FL | HIV-1 isolate LAI)
[3] = biological target: HIV-1 ADA Env trimer (gp120/gp41) on LAI-chimeric molecular clone virions (HIV-1 isolate ADA | HIV-1 isolate LAI)
[4] = biological target: HIV-1 ADA Env trimer (gp120/gp41) on LAI-chimeric molecular clone virions (HIV-1 isolate ADA | HIV-1 isolate LAI); test: native gel or EMSA; Blue Native PAGE: virions concentrated 100-fold, 1% DDM for 20 min on ice, 4-16% NativePAGE Bis-Tris gel at RT, Western blot with mAb cocktails to gp120 or to gp41; virions untreated or first incubated 1 h at 37-57°C or up to 96 h at 37°C
[5] = biological target: HIV-1 JR2 Env trimer (gp120/gp41) on LAI-chimeric molecular clone virions (HIV-1 isolate JR-FL | HIV-1 isolate LAI); test: as above
[6] = biological target: HIV-1 JR-CSF Env trimer (gp120/gp41) on LAI-chimeric molecular clone virions (HIV-1 isolate JR-CSF | HIV-1 isolate LAI) (UniProt P20871); test: as above
[7] = biological target: HIV-1 JR-FL Env trimer (gp120/gp41) on LAI-chimeric molecular clone virions (HIV-1 isolate JR-FL | HIV-1 isolate LAI); test: as above
[8] = biological target: HIV-1 JR-FL SOS Env trimer (A501C, T605C) on LAI-chimeric molecular clone virions (HIV-1 isolate JR-FL | HIV-1 isolate LAI); test: as above

Four-domain soluble human CD4 (receptor)
sCD4 IC50: concentration of 4-domain soluble CD4 required to decrease HIV-1 infectivity by 50% (TZM-bl cells) [1]: 1.1 µg/mL | sCD4 IC50: concentration of 4-domain soluble CD4 required to decrease HIV-1 infectivity by 50% (TZM-bl cells) [2]: 1.2 µg/mL | sCD4 IC50: concentration of 4-domain soluble CD4 required to decrease HIV-1 infectivity by 50% (TZM-bl cells) [3]: 0.17 µg/mL

HIV-1 ADA Env trimer (gp120/gp41) on LAI-chimeric molecular clone virions (complex)
stoichiometry N [4]: 3

HIV-1 JR2 Env trimer (gp120/gp41) on LAI-chimeric molecular clone virions (complex)
stoichiometry N [5]: 3

HIV-1 JR-CSF Env trimer (gp120/gp41) on LAI-chimeric molecular clone virions (from UniProt P20871 32-503) (complex)
stoichiometry N [6]: 3

HIV-1 JR-FL Env trimer (gp120/gp41) on LAI-chimeric molecular clone virions (complex)
stoichiometry N [7]: 3

HIV-1 JR-FL SOS Env trimer (A501C, T605C) on LAI-chimeric molecular clone virions (complex)
stoichiometry N [8]: 3
